The values below come from patent US11208498B2, “Treatment and prevention of cancer using HER3 antigen-binding molecules” (Hummingbird Bioscience Holdings Pte. Ltd., priority 2019, dated 2021).

Data set [1] concerns the target human HER3 (Homo sapiens, UniProt P21860). Kind of data set: Global affinity study by Bio-Layer Interferometry (Octet QK384). The class given is binding. The following applies: HER3 unbound, 'closed' conformation. The method, then:
The anti-HER3 antibody clones in IgG1 format were analysed for binding affinity to human HER3.
Bio-Layer Interferometry (BLI) experiments were performed using the Octet QK384 system (ForteBio). anti-Human IgG Capture (AHC) Octet sensor tips (Pall ForteBio, USA) were used to anti-HER3 antibodies (25 nM). All measurements were performed at 25° C. with agitation at 1000 rpm. […] Sensograms were referenced for buffer effects and then fitted using the Octet QK384 user software (Pall ForteBio, USA).
(§1) Binding of anti-HER3 antibodies to human HER3 was evaluated by BLI. Briefly, anti-Human IgG Capture (AHC) sensors (ForteBio) were loaded with anti-HER3 IgG antibodies (25 nM). Kinetic measurements were performed in absence or presence of NRG1. NRG1 was used at 1:1 molar ratio with HER3 wherein the complex was allowed to form at RT for 2 h. His-tagged human HER3 or HER3-NRG1 complexes were loaded to antibody coated AHC sensors at different concentrations for 120 s, followed by a 120 s dissociation time. All measurements were performed at 25° C. with agitation at 1000 rpm. Sensorgrams were referenced for buffer effects and then analyzed using the Octet QK384-software (ForteBio). Kinetic responses were globally fitted using a one-site binding model to obtain values for association (Kon), dissociation (Koff) rate constants and the equilibrium dissociation constant (KD).

Data set [2] concerns the target human HER3: human NRG1 complex (Homo sapiens, UniProt P21860). Kind of data set: BLI binding to HER3 in ligand-bound 'open' conformation. The following applies: NRG1 at 1:1 molar ratio with HER3. On the procedure:
In further experiments, anti-HER3 antibodies were analysed in order to determine the affinity of binding to human HER3 in the context of a human HER3: human NRG1 complex (that is, HER3 provided in the ligand-bound, ‘open’ conformation), as compared to the affinity of binding to human HER3 in the absence of NRG1 complex (that is, HER3 provided in the unbound, ‘closed’ conformation).
as §1
On the technique in general: In BLI a coated tip is dipped into the sample, and binding shifts an interference pattern.

Data set [3] concerns the target His-tagged human HER3 (Homo sapiens, UniProt P21860). Kind of data set: BLI competition between anti-HER3 antibodies for binding to HER3. On the procedure: Bio-Layer Interferometry (BLI) experiments were performed using the Octet QK384 system (ForteBio). anti-Penta-HIS (HIS1K) coated biosensor tips (ForteBio, USA) were used to capture His-tagged human HER3 (75 nM; 300 s). […] The variable region of LJM-716 antibody was cloned in the PDZ vector having human IgG1 and IgKappa Fc backbone.
BLI experiments were performed as described in Example 3.5 with one alteration: 400 nM of competing antibodies were used. The variable regions of M-05-74 and M-08-11 antibodies were cloned in the PDZ vector having human IgG1 and IgKappa Fc backbone.

Data set [4] concerns HER3 extracellular domain. Kind of data set: Epitope mapping with overlapping 15-mer peptides. In kind it is binding, human. On the procedure:
The epitope for 10D1 was mapped using overlapping 15-mer amino acids to cover the entire HER3 extracellular domain. Each unique 15-mer was elongated by a GS linker at C and N-terminals, conjugated to a unique well in 384 well plates, and the plates were incubated with 0.1, 1, 10 and 100 ug/ml of 10D1 antibody for 16 hrs at 4° C. The plates were washed and then incubated for 1 hr at 20° C. with POD-conjugated goat anti-human IgG. Finally POD substrate solution was added to the wells for 20 min. before binding was assessed by measurement of chemiluminescence at 425 nm using a LI-COR Odyssey Imaging System, and quantification and analysis was performed using the PepSlide Analyzer software package. The experiment was performed in duplicate.

Data set [5] deals with intracellular signalling pathways in FaDu cells. Kind of data set: Phosphoprotein Antibody Array, FaDu cells. The class given is cell-based. The following applies: 50 μg/ml antibody 4 hrs, NRG 100 ng/ml 15 min. The method, then: In further experiments the inventors investigated the intracellular signalling pathways affected by anti-HER3 antibody-mediated inhibition of HER3.
FaDu cells were seeded in wells of a 6 well plate with 10% serum at 37° C., 5% CO2. After 16 hrs, cells were starved by culture overnight in 1% FBS cell culture medium. On the following day cells were treated with 50 μg/ml anti-HER3 antibody 10D1 for 4 hrs, followed by 15 min stimulation with NRG (100 ng/ml). Proteins were then extracted, quantified using standard Bradford protein assay, and incubated overnight with pre-blocked Phosphoprotein Antibody Array membrane (Ray Biotech) at 4° C. The membrane was then washed with washing buffer and incubated with detection antibody cocktail for 2 hrs at room temperature, followed by washing and incubation with HRP-Conjugated anti-IgG. After 2 hrs the membrane was washed and probed using the kit detection buffer. Images were captured with Syngene Gbox imaging system, the intensity of each dot/phosphoprotein was measured and percent inhibition was calculated by comparison with intensity measured for cells treated in the same way in the absence of the antibody.

The target of data set [6] is T1, human EGFR (Homo sapiens, UniProt P00533).
T1 construct: purchased Sino Biological Inc., China
Put plainly: ELISA for antibody specificity: human EGFR (HER1). The class given is binding. On the procedure:
ELISAs were used to determine the binding specificity of the antibodies. The antibodies were analysed for binding to human HER3 polypeptide, as well as respective mouse, rat and monkey homologues of HER3 (Sino Biological Inc., China). The antibodies were also analysed for their ability to bind to human EGFR and human HER2 (Sino Biological Inc., China).
ELISAs were carried out according to standard protocols. Briefly, 96-well plates (Nunc, Denmark) were coated with 0.1 μg/ml of target polypeptide in phosphate-buffered saline (PBS) for 16 h at 4° C. After blocking for 1 h with 1% BSA in Tris buffer saline (TBS) at room temperature, the anti-HER3 antibody was serially diluted with the highest concentration being 10 μg/ml, and added to the plate. Post 1 h incubation at room temperature, plates were washed three times with TBS containing 0.05% Tween 20 (TBS-T) and were then incubated with a HRP-conjugated anti-His antibody (Life Technologies, Inc., USA) for 1 h at room temperature. […] The reaction was stopped with 2M H2SO4, and OD was measured at 450 nm.
The antibodies were analysed for their ability to bind to human HER3 polypeptide as well as human HER1 (EGFR) and human HER2 (Sino Biological Inc., China). […]
ELISAs were carried out according to standard protocols. […] The reaction was stopped with 2M […], and OD was measured at 450 nm.
In general terms: ELISA stands for enzyme-linked immunosorbent assay.

In the case of “LJM716: anti-HER3 antibody clone described in Garner et al., Cancer Res (2013); epitope across domains II and IV [reference compound]”, the “affinity of binding to human HER3 in the absence of NRG1” value in data set [1] is on record as “subpicomolar affinity”. For the same molecule, the “affinity of binding to human HER3 in the presence of NRG1” value in data set [2] is “dramatically reduced”.

B1: 10D1F: clone with VH SEQ ID NO:36 and VL SEQ ID NO:83; b369 means 10D1F.A, b1087 the mIgG2a format (antibody, V domains shown)
VH: QVQLQESGPGLVKPSQTLSLTCTVSGYSITSGYSWHWIRQHPGKGLEWIGSIRYSGGTDYNPSLKSLVTISADTSKNQFSLKLSSVTAADTAVYYCARMTTAPWYPFDYWGQGTTVTVSS
VL: DIQMTQSPSSVSASVGDRVTITCKASQIVGSNVAWYQQKPGKAPEPLIYSASYLYSGVPSRFSGSGSGTDFTLTISSLQPEDFATYYCQQYSSHPLTFGQGTKLEIK
modifications: 10D1_c89 heavy chain variable region; 10D1_c89 light chain variable region
notes: b369 means 10D1F.A, b1087 the mIgG2a format
For B1, the “affinity of binding to human HER3 in the absence of NRG1” value in data set [1] was “sub-picomolar affinity”. Also, in data set [2], the “affinity of binding to human HER3 in the presence of NRG1” value was “sub-picomolar affinity”.

B2: 10D1: parental mouse anti-HER3 antibody clone, VH SEQ ID NO:24, VL SEQ ID NO:74, human IgG1 chimeric (antibody, V domains shown)
VH: DVQLQESGPDLVKPSQSLSLTCTVTGYSITSGYSWHWIRQFPGNKLEWMGSIHYSGGTNYNPSLKSRISITRDTSKNQFFLQLNSVTTEDTATYFCARMTTAPRYPFDYWGQGTTLTVSS
VL: DIVMTQSQKFMSTSVGDRVSVTCKASQIVGSNVAWYQQKPGQSPKPLIYSASYRYSGVPDRFTASGSGTDFTLTITNVQSEDLAEYFCQQYSSHPLTFGAGTKLELK
modifications: human IgG1 constant regions; 10D1 heavy chain variable region; 10D1 light chain variable region
For the molecule B2, the “epitope of HER3 relative to MM-121 and/or LJM-716” value in data set [3] is “distinct and topologically distant epitope”. Besides, in data set [4], the “location of epitope relative to β-hairpin of HER3 dimerisation arm” value is on record as “at a dimerisation interface N-terminal to the β-hairpin”. The “site of HER3 bound” value in data set [4] (positions of human HER3 SEQ ID NO:1, region SEQ ID NO:229) is given as “positions 218 to 235”. Also, the “PI3K/AKT/mTOR and MAPK signalling” value in data set [5] is “inhibit PI3K/AKT/mTOR and MAPK signalling”.

B3: 4-35-B2: anti-HER3 antibody clone, VH SEQ ID NO:127, VL SEQ ID NO:135 (antibody, V domains shown)
VH: EIQLQQSGPELVKPGASVKVSCKASGYSFTDYNMYWVKQSHGKSLEWIGHINPYNGGTTYNQKFKGRATLTVDKSSSTAFMHLNSLTSEDSAVYFCVSLRWGAMDYWGQGTSVTVSS
VL: QIVLTQSPALMSASPGEKVTMTCSASSSVSYMYWYQQKPRSSPKPWIYLTSNLASGVPARFSGSGSGTSYSLTISSMEAEDAATYYCQQWNSNPYTFGGGTKLEIK
modifications: 4-35-B2 heavy chain variable region; 4-35-B2 light chain variable region
Take B3: the “binding to human EGFR” value in data set [6] is on record as “found to bind”.
